Reference: paper PMC2684811 (Analytical biochemistry, 2009)

Biological target: acetylcholine-binding protein (AChBP) from Lymnaea stagnalis, carboxy-terminal hexahistidine-tagged (Lymnaea stagnalis, UniProt P58154 20-229)
Experiment: SPR

Chain of acetylcholine-binding protein (AChBP) from Lymnaea stagnalis, carboxy-terminal hexahistidine-tagged (P58154 20-229): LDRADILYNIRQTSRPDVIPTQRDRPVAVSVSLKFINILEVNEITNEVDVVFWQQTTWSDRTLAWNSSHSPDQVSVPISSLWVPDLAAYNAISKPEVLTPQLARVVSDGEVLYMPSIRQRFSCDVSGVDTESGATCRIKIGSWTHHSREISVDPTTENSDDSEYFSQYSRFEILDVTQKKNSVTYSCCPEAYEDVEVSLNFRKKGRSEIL

B1: α-bungarotoxin (natural protein)
chain: IVCHTTATSPISAVTCPPGENLCYRKMWCDAFCSSRGKVVELGCAATCPSKKPYEEVTCCSTDKCNPHPKQRPG
B1: binds.
